According to a protein production outcome set (Wang et al. 2014):

Experiment: label from the status in PepcDB records

Sequence | protein production
MTPSKTTLVERCYKYIMSNEKNWSPYTVINRKSWVKNYIEPFFKDTKLIDINPVLIQTFINTTFNNCTFSSSKIRYRFISSVLKEAYRLREINENPCDFVKLPLEHHHHHH | failed
MLRYHMQGFSGYGVQYSPFFDNRLAVAAGSNFGLVGNGKLFILEIDRSGRIVEVNSFLTQDCLFDLAWNESHENQVLVAQGDGTLRLFDTTFKEFPIAIFKEHEREVFSCNWNLVNRQNFLSSSWDGSIKIWSPLRKQSLMTLTPRPLEITKMVDPLNAIILKKKSFTGISKNRNCVYQAQFSPHDQNLVLSCSGNSYASLFDIRLPSGKNQNNFLVHSGLEALTCDFNKYRPYVVATGGVDNAIRIWDIRMLNKNESATIKRTVPGQLHNSSCINEIPNAHGLAIRKVTWSPHHSNILMSASYDMTCRIWRDLSNDGAKETYKTNSTDATKGSIFNFTQHSEFVFGADWSLWGKPGYVASTAWDGNLFVWNGLG | failed
MQARLSGTSIGLTGPAATKLVRLSRAIEWMSTIGIVLIVGLIGAVFLVPSWTRNLLLTKLGEIGTRLPLDAGNQALAAVIITVPVAVMLWGLVNVRALFAEFARGQVFTTTAATYLQRFGIAVLAQGLLGPVTATALALALSLSNPPGQRLLVLTFSSNDYVSVIVGGVLVAVAAVMREAARLADENASFV | failed
MVHMGYKITDKRDLSPIDFFVEVEAPHIAKAWKPGQFVIFILHERGERVPMSVYKAENGRIGMFIRKLGKTSLQLYYEFNVGDEFYSMVGPLGKPIKVKYYGNVVFASDAVCGQAENYATLKAMKEVGNYTISIQTFENAENVYPEEFLAKPVADEHYLTTEDGSVGIKGHYLDIVKELIEKDKVDIIFAGGKLGSLAKLAELTRPYGIPTYATVRQIMVDGTGMCGSCRILYDGEVKFACRDGPVFDAHKVDWEDVLRRANRFLEQERLAKERYLEYLRKKGVI | failed
MNLVQAFLLSFTAFFAIMNPFANLPMFVSLTADNNRKEVDAIARLAFIVATVIVALFALLGNYIFSIFGINLSALRIMGGIILGLIGYHMIQGNVSPIQHDPKQSVKDSINSNNTDVAISPLAMPVLAGPGTIATTMNLSSSTNPFIVISAFVVLSVITYFIFIYGEQIMAKLGNNIMNVITKLMGLILATIGVRMLIMGVQVAFHW | failed
MATAEAQIGVNRNLQKQDLSNLDVSKLTPLSPEVISRQATINIGTIGHVAHGKSTVVKAISGVQTVRFKNELERNITIKLERLSEKKIKNLLTSKQQRQQYEIKQRSMLRHLAELRRHSRFRRLCTKPASSSMPASTSSVDRRTTRRSTSQTSLSPSNSSGYGSVFGCEEHDVDKIPSLNGFAKLKRRRSSCVGAPTPNSKRSKNNMGVIAKRPPKGEYVVERIECVEMDQYQPVFFVKWLGYHDSENTWESLANVADCAEMEKFVERHQQLYEIYIAKITTELEKQLEALPLMENITVAEVDAYEPLNLQIDLILLAQYRAAGSRSQREPQKIGERALKSMQIKRAQFVRRKQLADLALFEKRMNHVEKPSPPIRVENNIDLDTIDSNFMYIHDNIIGKDVPKPEAGIVGCKCTEDTEECTASTKCCARFAGELFAYERSTRRLRLRPGSAIYECNSRCSCDSSCSNRLVQHGRQVPLVLFKTANGSGWGVRAATALRKGEFVCEYIGEIITSDEANERGKAYDDNGRTYLFDLDYNTAQDSEYTIDAANYGNISHFINHSCDPNLAVFPCWIEHLNVALPHLVFFTLRPIKAGEELSFDYIRADNEDVPYENLSTAVRVECRCGADNCRKVLF | failed
MLPVASLLILVPLIFAVVTFFTKTKQLAAGFGFLGSLATLGLTLYAYLNFDSSTAAMQFYESVSWIPFLGVNYSVGIDGVSMPLILLNAIVIPFMILFTWKEEMESPNRFYGLILTMQAAVIGVFVALDFVVFYIFWELTLVPLFFIVNLWGGANRAHASYKFFIYTHVASLVMLLGIFGLFYTALNQTGVPTFDIRELIAQFQFFEPGLMKDGIFLAILFGFLAKLPAFPFHSWLPDAYSEAPTAGSILFILLKIGGYGLFRISLPMLPNTGSPQLMIMILGLLGSVSILYGALLALRQKDLKRMIAYSSLSHMGYVILGSAGLVTLSVSGAMFQQFSHGLIMSIMFMSAGAIQTAAGTRIINELGGLAKKMPMLTVAMMVGFMASLGLPGLTGFIAEFLVLTFTFTNLPVFVVIALLAIVVTAGYHLWAMQRAMFGVYNEKLGDVRDINSIQVFSMAVIALLVLYFGLNPSPVLDMMINNSEAIVSLAAGMGV | failed
MFCTFFEKHHRKWDILLEKSTGVMEAMKVTSEEKEQLSTAIDRMNEGLDAFIQLYNESEIDEPLIQLDDDTAELMKQARDMYGQEKLNEKLNTIIKQILSISVSEEGEKELKSNRIFISWLRWPLFIRIGVIILCLILLFGQIIYILEPKQFTSVFEGIWWAVVTVSTVGYGDYVPHTPLGQAAGILLILSGASFVTAYFATLSAAAFSRQHRYIEGKVAYKGRDHIILIGWNEKTNRLLKDLQLGAPSKTVVLIDESLTEGPLIENVHFIRGHAADDGTLKRANITEAESVMITADQYKSETDADMLSVLTLLSVKGLNPLAYCIVEILTDRFVTNAERAGANQIIGTSEFISRAMLQHYQVKLRRLNSRTESS | failed
MAEAANKNKPHKLIIDNRNSMSMTGVTKVISIDTDLVLLVTEQGKLKITGKNMQASTLDLDKGILELTGNFNTMVYSGEKEGALSLKSLFK | failed
MSNLPLISVVIPTYGREEILRDSIVDVLNQDYPKYEVLVVDQSPKHKPEIETYLEEVAAAGKVKWFRLDWASLPGARNYAIRRASGEIILFIDDDVKLKPGFLAAHAKNYVQNPDVGSVAGRVFDRMKLGDSGGNLEIEYLPPEAMDPGVAWYHIDLVHTIKPQQVLTARGCNMSFRREIFTKHGLRFDERFRGSAVREESDFCLRLRQTGYKIWYDPEADLIHLGEETGGCHDISMRSLKYQFTFYHNHFLLGLKNLNFSQALRLYARLFDCHVLGRPPCHKSGSPIKIITRGIFYILGFFRALGSVIQSNWHDGQIYSRLDQESIIKSQESMVNS | failed
MKMKILGISFGTKNGNNDTMCKVALKGAKEAGAEVEFIQMSSINIKHCTGCCACVKTLLSGKGSMCVLKDDFEWLLDKMKDADGIVVSDPIFEEGASGLFHTIMDRFGPRADRGNNIIGTKVAEAIGGKIPDSRMLNDKVISFMGIGGSDWGTRVQCEHAMLALIPMWKVIDNAWFPWAKELVMDDTRLVQVHQIGLNIVEAAKDFEKASYQGEEGVCPHCHNRLFYLEPGTKKAICALCGIVGELDTISGKTIFSFPEEQLGHAHDTLPGKFIHGDDIKKMEGHYAEVRKTQEFKERKTSYNFIETLTKEKQAGVSLG | failed
MGRKVRAYFVHLFTASGVAFAFLAMREVVRVDLDPRWVFGWLTLAVFIDAADGPLARLWDVKLYASRILGKTIDLIVDYLTFTFIPLTLVWRMDWLPGWDGLWVTLAMVASLLGFANTAAKQSQEGFFLGFPSYWNVVAYYVGLLAVEYGAVGAYVSLGSVLTLTVLTLVPVRFVYPNAAPTPWRAIVTVGGVAWLGLLLALLPTFPELPAWGGDWVLGVSFVYPAFYFGLSGWLDWTSRQS | failed
MTDNSPPPNGHAQARVRKNNTFLSAVWLVPLIALIAGGWLWVKEIRNRGPVVTLLMDSAEGIEVNNTVIKVLSIDVGRVTRIKLRDDQKGVEVTAQLNADVSGLIRSDTQFWVVKPRIDQSGVTGLGTLLSGSYIAFTPGKSDEAKDVFQVQDIPPVTAIGQSGLRLNLIGKNDRILNVNSPVLYENFMVGQVESAHFDPSDQSVHYTIFIQSPNDKLIHSASRFWLESGINIETTGSGIKLNSAPLPALLSGAISFDSPKTKNSKNVKSEDSFTLYDSRSEVANLPDDRSLYYTAFFKQSVRGLTVGSPVEYKGLNVGVVSDVPYFDRNDSLHLFENGWIPVRIRIEPSRLEINADEQSKEHWKQQFQTALNKGLTATISSNNLLTGSKMIELNDQPSASPKLRPHTVYAGDTVIATQGGGLDDLQVKLADLLDKFDKLPLDKTVAELNGSLAELKSTLKSANAALSSIDKLVGKPQTQNIPNELNQTLKELRTTLQGVSPQSPIYGDVQNTLQSLDKTLKDVQPVINTLKEKPNALIFNSSSKDPIPKGSR | failed
MPHLFYGTAQNGEVIFDEREAHHMRVVRLKEGDVIEATDGNGFSYTCILKSLKKKTAAAKIVKVEEKEKEPTEKLSVVVPIGRWERTRFLIEKCVELGVDEIFFHKFERSQHEISLDKAKIVVREAAKQCKRYLFPKVSFLEKLEFSGNVITLDLDASQNLLDANLEGSITVVVGPEGGFSEKERELLRSSTTIVSLGKKILRFETAAILTVGYIALKKQKI | not failed
MEYQLSQAGNKGKVLILKVTGIFFVALAILGVVLPILPTTPFLLVAAACFAKSSPTMQRKLLANKTFGPLIHDWQKYRSIPRKAKRIALLTMILSVCWSAFMLQSVMLTALVVALVIGPFIFLLRLPESK | failed
MSASICCRCNEKIWPRAVCSLGKTYHPHHFTCKECGLVVDPKLFFAVDDDVVCSECYLDKHAARCSACRTPILERGVAAAERKWHEKCFRCVSCSKSLVSASFFEVNGYLFCKAHFRELFSSRCAGCEKPIDRRAVVALSTKWHAKCFKCHHCRKRISAREFWIENGQPICAACQTVVPSPRNLSAQ | failed
IGPPESWPQALKTAVRIMLTSQQPIWIGWGTELTYLYNDPYKSIIGGKHPWALGRPTSEVWSEIWEDIAPLLAKATSGHEGTYVEAQLLIMERNGFPEETYYTFSYSPIPTDDGSPGGIFCANTDDTQRVITERQLSLLRDLAASAAESRS | failed
IKMAKDYGFCFGVKRAIQIAEKNQNSLIFGSLIHNAKEINRLEKNFNVKIEEDPKKIPKNKSVIIRTHGIPKQDLEYLKNKGVKITDATCPYVIKPQQIVESMSKEGYQIVLFGDINHPEVKGVISYATNQALVVNSLEELQEKKLQRKVALVSQTTKQTPKLLQIASYLVERCTEVRIFNTICNATSYNQKAALDLSKEVDIMIVVGGKTSSNTKQLLSIAKQHCKDSYLVEDENELELAWFKDKKLCGITAGASTPDWIIENVKQKISTI | failed
MILTRSSLVKRLTLMIMFAVIAVLVVAGISFNMLSQHHFRMLDEQALSEKLESTRHILSIQAPGTGMEELRPQLRALLGAHQDLTAEILTSEGEVLFSDLKAVQIPDKYKRADKEEMWEWQDESHNFRGITTDVEIQGQPAPGTVMLMLDITSHAHFFETLQRWFAIGLVISALVSAGIGWLVAKSGLRPVEQITKVATSISARSLQERIPLEPVPLELQTLILSFNGMLARLEDAFVRLSNFSADIAHELRTPVSNLLTHTEVVLTRKRDVDAYEENLYSNLEDLKRMSRMIDDMLFLAKSDNGLIIPEQVDIQLHDLVSKLFEYYQLLADDRGIRLTLQGKGVISGDRLMIDRAVSNILSNAVRYTPDGSGISVEIQQAADKVTLTIKNGGATIDPQHINKIFDRFYRADPARREGGPSNAGLGLAITRSIVKAHDGKVWCTSSEGVTAFNFIFPAAHRTAHIRTRH | failed
MDAARFPADARVRVLARRFPPYHRDSPCLAILDRFLHDPTLSAAAVVDDAMRPVGLIDRYSLVEQFLHPYSRDLYHKHSIAAFMDPEPVIVEADSSIDDLSRIIIDAGMRHMVSGFIVTEDGLYLGIGSGHDLFEEVANRKQNHLYHLAHYDPLTSLPNRLLLNDRLKRACLRGQRGGYRIALLFIDLDRFKLVNDTLGHAAGDQLLQGVAGRFAACVRKVDTVARLGGDEFTVLLEPVQGPDEALAVAAKLAQSLERPFLIQNHEITTSASIGVVLFPEHDATVEGLMRKADAAMYCAKREGRNRFALFTEEMNSTVVERVTLESYLNAALEKGEFCCHFQPQMATADDRIVGVEALLRWTNPVLGRVPPLKFIPVAEDTGLILPLGLWALETACAQQVRWLSQGLPPLRMAVNISPLQFRNREFCDQVRAIVQRTGIRAEHLELELTESAVMADAESSVGILRELRDSGIRLAIDDFGTGYSSLSYLRKFPLDRLKIDRSFVSGIDRIPANELIVKAIVALGGSLGLDVIAEGVETPEELECIERCGCSEYQGFRLSEPLTAEDFAHWFEDSGYVLEHHHHHH | failed
